Assays:
hDLL3-MC38 tumor model = assay: Biodistribution of radio-labelled DARPin conjugates in hDLL3-MC38 tumor model; type: in vivo, mouse; conditions: Pb-212 DOTAM conjugate 0.01 mg/kg (10 μCi) i.v., s.c. hDLL3-MC38
From the text: hDLL3-MC38 tumor model. ATH mice were purchased from Envigo. General handling and maintenance of mice was done as described above for the NCI-H82 tumor model. hDLL3-MC38 cells were purchased from Biocytogen (Catalog No. 311448). […] Cells were quantified using Countess cell counter.
Biodistribution study. […] Based on immunohistochemistry analyses, the hDLL3-MC38 tumors have a higher level of human DLL3 expression than the NCI-H82 tumors described in Example 3 (data not shown). Biodistribution was monitored at 1 h, 4 h and 24h post-injection. Mice were euthanized by CO2 inhalation and cervical dislocation.
Mice were euthanized by CO2 inhalation and cervical dislocation.

[1] = Pharmacokinetic analysis in WT BALBc mice (serum, ELISA); type: in vivo, mouse; conditions: natural lead-labelled DOTAM conjugate 1 mg/kg i.v., Tables 16, 17
[2] = molecular target: T1, human DLL3 expressed on HEK293T-huDLL3 cells (Homo sapiens, UniProt Q9NYJ7); assay: Cell binding titration on HEK293T-hDLL3 cells; type: cell-based; conditions: presence of human serum albumin (10 μM in FIG. 9 legend, 10 pM in the source), read-out: Cell binding EC50, with HSA
T1 construct: expressed in transfected cells; host or cells: HEK293T-hDLL3
T1 sequence (Q9NYJ7 27-618): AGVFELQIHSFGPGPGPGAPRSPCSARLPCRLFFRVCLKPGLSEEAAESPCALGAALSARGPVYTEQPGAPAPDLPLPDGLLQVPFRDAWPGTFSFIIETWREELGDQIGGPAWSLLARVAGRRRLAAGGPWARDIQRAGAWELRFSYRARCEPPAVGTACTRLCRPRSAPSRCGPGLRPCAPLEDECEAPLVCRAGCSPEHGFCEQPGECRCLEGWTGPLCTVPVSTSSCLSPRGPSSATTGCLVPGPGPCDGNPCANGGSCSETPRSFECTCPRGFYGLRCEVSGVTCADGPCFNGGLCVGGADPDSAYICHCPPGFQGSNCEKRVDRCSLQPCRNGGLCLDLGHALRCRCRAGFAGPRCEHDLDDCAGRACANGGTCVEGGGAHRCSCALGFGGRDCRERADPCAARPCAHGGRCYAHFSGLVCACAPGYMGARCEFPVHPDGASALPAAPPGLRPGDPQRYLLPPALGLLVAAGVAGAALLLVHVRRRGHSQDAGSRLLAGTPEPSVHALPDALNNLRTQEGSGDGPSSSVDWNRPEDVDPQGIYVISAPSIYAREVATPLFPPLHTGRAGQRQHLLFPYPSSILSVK

[3] = athymic nude mice, 4 h, Example 8
[4] = athymic nude mice, 24 h, Example 8
[5] = athymic nude mice, 4 h, Example 7
[6] = athymic nude mice, 24 h, Example 7

B1: MAM282: Two domain (2D) ankyrin repeat protein: serum albumin-specific domain (SEQ ID NO: 7), PT linker, DLL3-specific domain (SEQ ID NO: 2) (protein)
chain: DLGKKLLEAARAGQDDEVRELLKAGADVNAKDYFSHTPLHLAARNGHLKIVEVLLKAGADVNAKDFAGKTPLHLAADAGHLEIVEVLLKAGADVNAQDIFGKTPADIAADAGHEDIAEVLQKAAGSPTPTPTTPTPTPTTPTPTPTGSDLGKKLLAAAREGQDDEVRELLKAGADVNAKDIWGQTPLHIAAWFGHLEIVEVLLKAGADVNAKDQTGHTPLHLAAKFGHLEIVEVLLKAGADVNAQDLLGRTPADLAAEEGHEDIAEVLQKAA
modifications: Ankyrin repeat protein (MAM282)
Q: For B1, which “Blood % ID/g” value (hDLL3-MC38 tumor model; [3]) is on record?
A: 28.6 % ID/g

Q: And the “Kidneys % ID/g” value (hDLL3-MC38 tumor model; [3])?
A: 19.4 % ID/g

Q: And the “Tumors % ID/g” value (hDLL3-MC38 tumor model; [3])?
A: 21.4 % ID/g

Q: What about the “Blood % ID/g” value (hDLL3-MC38 tumor model; [4]) of the same molecule?
A: 9.9 % ID/g

Q: What about the “Kidneys % ID/g” value (hDLL3-MC38 tumor model; [4]) of the same molecule?
A: 27.9 % ID/g

Q: What about the “Tumors % ID/g” value (hDLL3-MC38 tumor model; [4]) of the same molecule?
A: 51.9 % ID/g

Q: And the AUCINF_pred [1]?
A: 8.435 µM·h

Q: And the “AUC_% Back_Ext_pred” value [1]?
A: 0%

Q: And the “AUC_% Extrap_pred” value [1]?
A: 17%

Q: And the AUClast [1]?
A: 7.0389 µM·h

Q: What about the CI_pred [1] of the same molecule?
A: 4 mL/h/kg

Q: What about the Cmax [1] of the same molecule?
A: 461 nM

Q: What about the HL_Lambda_z [1] of the same molecule?
A: 28.5 h

Q: What about the Tmax [1] of the same molecule?
A: 1.98 min

Q: What about the Vss_pred [1] of the same molecule?
A: 0.153 L/kg

Q: What about the EC50 [2] of the same molecule?
A: 19.6 nM

B2: MAM160: Two domain (2D) ankyrin repeat protein: serum albumin-specific domain (SEQ ID NO: 7), PT linker, DLL3-specific domain MAM120 (protein)
chain: DLGKKLLEAARAGQDDEVRELLKAGADVNAKDYFSHTPLHLAARNGHLKIVEVLLKAGADVNAKDFAGKTPLHLAADAGHLEIVEVLLKAGADVNAQDIFGKTPADIAADAGHEDIAEVLQKAAGSPTPTPTTPTPTPTTPTPTPTGSDLGTKLLSAAADGQDDEVRELLQAGADVNAKDLFGYTPLHLAAWRGHLEIVEVLLEAGADVNAKDAAGLTPLHLAAWFGHLEIVEVLLEAGADVNAQDVQGVTPADLAAKEGHEDIAEVLQQAA
modifications: Ankyrin repeat protein (MAM160)
Q: Which “Blood % ID/g” value (hDLL3-MC38 tumor model; athymic mice, 1 h, Example 4) does the source give for B2 here?
A: 38 % ID/g

Q: And the “Kidneys % ID/g” value (hDLL3-MC38 tumor model; athymic mice, 1 h, Example 4)?
A: 12 % ID/g

Q: What about the “T:K ratio” value (hDLL3-MC38 tumor model; athymic mice, 1 h, Example 4) of the same molecule?
A: 0.58

Q: What about the “Tumors % ID/g” value (hDLL3-MC38 tumor model; athymic mice, 1 h, Example 4) of the same molecule?
A: 7 % ID/g

Q: And the “Blood % ID/g” value (hDLL3-MC38 tumor model; athymic mice, 4 h, Example 4)?
A: 25 % ID/g

Q: What about the “Kidneys % ID/g” value (hDLL3-MC38 tumor model; athymic mice, 4 h, Example 4) of the same molecule?
A: 12 % ID/g

Q: What about the “T:K ratio” value (hDLL3-MC38 tumor model; athymic mice, 4 h, Example 4) of the same molecule?
A: 1.42

Q: What about the “Tumors % ID/g” value (hDLL3-MC38 tumor model; athymic mice, 4 h, Example 4) of the same molecule?
A: 17 % ID/g

Q: And the “Blood % ID/g” value (hDLL3-MC38 tumor model; athymic mice, 24 h, Example 4)?
A: 3 % ID/g

Q: And the “Kidneys % ID/g” value (hDLL3-MC38 tumor model; athymic mice, 24 h, Example 4)?
A: 17 % ID/g

Q: And the “T:K ratio” value (hDLL3-MC38 tumor model; athymic mice, 24 h, Example 4)?
A: 1.53

Q: What about the “Tumors % ID/g” value (hDLL3-MC38 tumor model; athymic mice, 24 h, Example 4) of the same molecule?
A: 26 % ID/g

Q: What about the “Blood % ID/g” value (hDLL3-MC38 tumor model; [5]) of the same molecule?
A: 17.9 % ID/g

Q: And the “Kidneys % ID/g” value (hDLL3-MC38 tumor model; [5])?
A: 11.6 % ID/g

Q: And the “Tumors % ID/g” value (hDLL3-MC38 tumor model; [5])?
A: 18.8 % ID/g

Q: And the “Blood % ID/g” value (hDLL3-MC38 tumor model; [6])?
A: 1.9 % ID/g

Q: And the “Kidneys % ID/g” value (hDLL3-MC38 tumor model; [6])?
A: 18 % ID/g

Q: What about the “Tumors % ID/g” value (hDLL3-MC38 tumor model; [6]) of the same molecule?
A: 28.9 % ID/g

Q: And the AUCINF_pred [1]?
A: 4.5873 µM·h

Q: And the “AUC_% Back_Ext_pred” value [1]?
A: 1%

Q: And the “AUC_% Extrap_pred” value [1]?
A: 0%

Q: What about the AUClast [1] of the same molecule?
A: 4.5787 µM·h

Q: What about the CI_pred [1] of the same molecule?
A: 7.4 mL/h/kg

Q: And the Cmax [1]?
A: 625 nM

Q: And the HL_Lambda_z [1]?
A: 8.3 h

Q: And the Tmax [1]?
A: 1.98 min

Q: What about the Vss_pred [1] of the same molecule?
A: 0.060 L/kg

Q: What about the EC50 [2] of the same molecule?
A: 36.6 nM

Reference: US20250332297A1, “DLL3-SPECIFIC BINDING CONSTRUCTS AND THEIR USE IN RADIOTHERAPY” (MOLECULAR PARTNERS AG, priority 2024, published 2025)
